For this assay, the target named is γ-secretase (human; HeLa cell membrane / solubilized HeLa membrane; endogenous in HEK293 cells) (human, UniProt P49768 1-467; Q92542 34-709; Q9NZ42 1-101; Q96BI3 1-265).
Turning to LVFFAQD [Aβ17-23 heptapeptide with the Dutch mutation (E22Q)], the IC50 amounted to 2120 nM. That is a single-digit micromolar value. With LVFFAEN [Aβ17-23 heptapeptide with the Iowa mutation (D23N)], inhibition was half-maximal at 2940 nM (IC50). LVFFGED [Aβ17-23 heptapeptide with the Flemish mutation (A21G)] displayed an IC50 of 5270 nM.

Molecule LVFFAGD [Aβ17-23 heptapeptide with the Arctic mutation (E22G)] returned an IC50 of 3890 nM. Then LVFFAKD [Aβ17-23 heptapeptide with the Italian mutation (E22K)], with 2130 nM.

Usually IC50 stands for the midpoint of a concentration-inhibition curve.

Source of the values: patent US20100285988A1 (published 2010).
